# Data as given in publication PMC117612 (Molecular Biology of the Cell, 2002).
# Biological target: the molecule itself
# Test: SDS-PAGE under nonreducing and reducing conditions with Western blot
protein,measurement,value
murine TSP2 secreted by dermal fibroblasts (conditioned medium) (natural protein) not shown,stoichiometry N,3
